The source of these data is patent US20250019439A1 (Adimab, published 2025).

One assay concerns the target T1, ADI-26954 anti-CD3 bsIgG.
T1 construct: anti-HER2 IgG with one Fab arm replaced by the anti-CD3 scFv (printed 'Vx-VH', read as VL-VH); S354C and Y349C mutations; also called anti-CD3 bsIgG (ADI-26954 scFv); not shown: scFv linker; anti-HER2 Fab arm (heavy and light chain); hinge and Fc with S354C/Y349C
Nature of the assay: BLI; tip anti-CD3 bsIgG, solution ADI-34145 IgG. Here is the method: (§1) ForteBio affinity measurements were performed generally as previously described (Estep et al., MAbs. 2013 5(2):270-8). Briefly, ForteBio affinity measurements were performed by loading antibody IgG or Fabs on-line onto AHC sensors. Sensors were equilibrated off-line in assay buffer for 30 minutes and then monitored on-line for 60 seconds for baseline establishment. For avid binding measurement, sensors with loaded antibodies were exposed to IgG or Fab solutions for 3 minutes, afterwards they were transferred to assay buffer for 3 minutes for off-rate measurement. Kinetics data were fit using a 1:1 binding model in the data analysis software provided by ForteBio to obtain equilibrium dissociation constant (KD=koff/kₒₙ) values. In each column, tip-immobilized antibodies are listed first and solution antibodies second.
(§2) Additional analysis was conducted using bispecific antibody formats incorporating anti-CD3 antibody variable domains. Bispecific antibodies were prepared using standard IgG formats (bsIgG) with replacement of Fab arms with anti-CD3 scFvs in Vx-VH orientation and with S354C and Y349C mutations for disulfide stabilization. Antibodies used for Fab arm replacement were anti-HER2 IgG antibodies, with one Fab arm from each replaced by a scFv corresponding to a different anti-CD3 antibody. […] In each column, tip-immobilized antibodies are listed first and solution antibodies second. Anti-CD3 antibodies associated with incorporated scFvs are listed by antibody number.
In general terms: In BLI a coated tip is dipped into the sample, and binding shifts an interference pattern.

Assay [1] has as its target T2, CTL-19613 anti-CD3 bsIgG (In the assay the two domains were one scFv (VL-VH orientation, linker not given). It replaced one Fab arm of an anti-HER2 IgG; S354C and Y349C mutations are stated for disulfide stabilization.).
T2 construct: anti-HER2 IgG with one Fab arm replaced by the anti-CD3 scFv (printed 'Vx-VH', read as VL-VH); S354C and Y349C mutations; also called anti-CD3 bsIgG (CTL-19613 scFv); not shown: scFv linker between VL and VH; anti-HER2 heavy and light chains of the other arm; hinge and Fc (with S354C / Y349C)
Nature of the assay: BLI; tip anti-CD3 bsIgG, solution ADI-34145 IgG. On the procedure: as §1, §2

The target in the next assay is T3, CTL-19672 anti-CD3 bsIgG (In the assay the two domains were one scFv (VL-VH orientation, linker not given). It replaced one Fab arm of an anti-HER2 IgG; S354C and Y349C mutations are stated for disulfide stabilization.).
T3 construct: anti-HER2 IgG with one Fab arm replaced by the anti-CD3 scFv (printed 'Vx-VH', read as VL-VH); S354C and Y349C mutations; not shown: scFv linker between VL and VH; anti-HER2 heavy and light chains of the other arm; hinge and Fc (with S354C / Y349C)
Nature of the assay: BLI; tip anti-CD3 bsIgG, solution ADI-34145 IgG. Here is the method:
as §1, §2

In assay [2] the target is T4, ADI-22523 anti-CD3 bsIgG (In the assayed molecule VL and VH are joined as one scFv (printed 'Vx-VH' orientation) by an undisclosed linker and fused to an Fc, paired with an anti-HER2 half-IgG. They are given here as two …).
T4 construct: anti-HER2 IgG with one Fab arm replaced by the anti-CD3 scFv (printed 'Vx-VH', read as VL-VH); S354C and Y349C mutations; not shown: scFv linker between VL and VH; anti-HER2 heavy and light chains; hinge and Fc with S354C/Y349C
Put plainly: BLI; tip anti-CD3 bsIgG, solution ADI-34145 IgG. On the procedure: as §1, §2

The target of a further assay is T5, ADI-26916 anti-CD3 bsIgG.
T5 construct: anti-HER2 IgG with one Fab arm replaced by the anti-CD3 scFv (printed 'Vx-VH', read as VL-VH); S354C and Y349C mutations; also called anti-CD3 bsIgG (ADI-26916 scFv); not shown: scFv linker; anti-HER2 Fab arm (heavy and light chain); hinge and Fc with S354C/Y349C; copies: 1 + 1
Nature of the assay: BLI; tip anti-CD3 bsIgG, solution ADI-34145 IgG. On the procedure:
as §1, §2

Assay [3] concerns the target T6, ADI-26906 anti-CD3 bsIgG.
T6 construct: anti-HER2 IgG with one Fab arm replaced by the anti-CD3 scFv (printed 'Vx-VH', read as VL-VH); S354C and Y349C mutations; also called anti-CD3 bsIgG (ADI-26906 scFv); not shown: scFv linker; anti-HER2 Fab arm (heavy and light chain); hinge and Fc with S354C/Y349C
Put plainly: BLI; tip anti-CD3 bsIgG, solution ADI-34145 IgG. On the procedure: as §1, §2

For another assay, the target named is T7, ADI-26927 anti-CD3 bsIgG.
T7 construct: anti-HER2 IgG with one Fab arm replaced by the anti-CD3 scFv (printed 'Vx-VH', read as VL-VH); S354C and Y349C mutations; also called anti-CD3 bsIgG (ADI-26927 scFv); not shown: scFv linker; anti-HER2 Fab arm (heavy and light chain); hinge and Fc with S354C/Y349C
Nature of the assay: BLI; tip anti-CD3 bsIgG, solution ADI-34134 IgG. On the procedure: as §1, §2

The target in assay [4] is T2, CTL-19613 anti-CD3 bsIgG. Put plainly: BLI; tip anti-CD3 bsIgG, solution ADI-34134 IgG. Here is the method: as §1, §2
The next assay addresses T8, ADI-26928 anti-CD3 bsIgG.
T8 construct: anti-HER2 IgG with one Fab arm replaced by the anti-CD3 scFv (printed 'Vx-VH', read as VL-VH); S354C and Y349C mutations; also called anti-CD3 bsIgG (ADI-26928 scFv); not shown: scFv linker; anti-HER2 Fab arm (heavy and light chain); hinge and Fc with S354C/Y349C
Put plainly: BLI; tip anti-CD3 bsIgG, solution ADI-34134 IgG. On the procedure:
as §1, §2

The target of assay [5] is T4, ADI-22523 anti-CD3 bsIgG. Nature of the assay: BLI; tip anti-CD3 bsIgG, solution ADI-34134 IgG. On the procedure:
as §1, §2

The target of assay [6] is T6, ADI-26906 anti-CD3 bsIgG. Put plainly: BLI; tip anti-CD3 bsIgG, solution ADI-34134 IgG. Here is the method: as §1, §2

The Kd is the free concentration of one partner at which half of the binding sites on the other are occupied at equilibrium, for simple one-to-one binding. A lower Kd goes with a tighter complex.

T6 sequence (VH, as listed by the source limits assumed, chain 1 of 2): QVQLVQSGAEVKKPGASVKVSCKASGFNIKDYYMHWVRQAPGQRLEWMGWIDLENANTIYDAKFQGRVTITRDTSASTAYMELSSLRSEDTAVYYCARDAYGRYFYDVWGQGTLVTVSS
T6 sequence (VL, as listed by the source limits assumed, chain 2 of 2): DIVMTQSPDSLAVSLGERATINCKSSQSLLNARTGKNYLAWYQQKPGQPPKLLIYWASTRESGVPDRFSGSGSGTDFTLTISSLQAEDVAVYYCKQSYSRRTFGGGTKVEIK
T4 sequence (VH, as listed by the source limits assumed, chain 1 of 2): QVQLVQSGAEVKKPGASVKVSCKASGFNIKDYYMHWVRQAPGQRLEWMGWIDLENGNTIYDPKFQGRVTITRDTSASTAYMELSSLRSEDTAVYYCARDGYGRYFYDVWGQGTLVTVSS
T4 sequence (VL, as listed by the source limits assumed, chain 2 of 2): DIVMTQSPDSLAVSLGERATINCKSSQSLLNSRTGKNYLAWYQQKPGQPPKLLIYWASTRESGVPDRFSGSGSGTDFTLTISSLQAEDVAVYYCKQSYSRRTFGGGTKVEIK
T5 sequence (VH, as listed by the source limits assumed, chain 1 of 2): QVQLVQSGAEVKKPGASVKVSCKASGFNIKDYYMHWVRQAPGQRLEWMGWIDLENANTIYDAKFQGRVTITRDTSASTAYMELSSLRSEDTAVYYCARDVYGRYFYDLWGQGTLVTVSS
T3 sequence (VH, as listed by the source limits assumed, chain 1 of 2): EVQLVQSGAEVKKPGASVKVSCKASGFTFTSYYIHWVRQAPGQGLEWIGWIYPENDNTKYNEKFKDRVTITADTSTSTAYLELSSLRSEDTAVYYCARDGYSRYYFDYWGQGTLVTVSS
T3 sequence (VL, as listed by the source limits assumed, chain 2 of 2): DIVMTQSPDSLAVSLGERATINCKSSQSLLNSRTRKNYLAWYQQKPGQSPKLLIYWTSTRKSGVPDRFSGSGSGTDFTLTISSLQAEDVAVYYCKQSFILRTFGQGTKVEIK
T8 sequence (VH, as listed by the source limits assumed, chain 1 of 2): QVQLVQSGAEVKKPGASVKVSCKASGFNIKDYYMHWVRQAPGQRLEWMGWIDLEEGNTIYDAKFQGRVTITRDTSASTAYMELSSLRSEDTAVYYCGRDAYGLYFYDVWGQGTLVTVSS
T8 sequence (VL, as listed by the source limits assumed, chain 2 of 2): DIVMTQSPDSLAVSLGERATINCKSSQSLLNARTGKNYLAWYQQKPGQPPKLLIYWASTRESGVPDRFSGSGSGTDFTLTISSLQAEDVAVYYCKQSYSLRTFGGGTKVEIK
T7 sequence (VH, as listed by the source limits assumed, chain 1 of 2): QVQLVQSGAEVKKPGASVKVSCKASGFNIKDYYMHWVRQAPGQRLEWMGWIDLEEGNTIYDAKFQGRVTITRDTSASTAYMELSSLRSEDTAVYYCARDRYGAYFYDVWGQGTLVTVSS
T1 sequence (VH, as listed by the source limits assumed, chain 1 of 2): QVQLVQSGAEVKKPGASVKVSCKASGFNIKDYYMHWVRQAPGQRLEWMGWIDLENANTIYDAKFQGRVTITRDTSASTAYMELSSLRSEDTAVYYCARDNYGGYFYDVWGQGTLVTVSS
T1 sequence (VL, as listed by the source limits assumed, chain 2 of 2): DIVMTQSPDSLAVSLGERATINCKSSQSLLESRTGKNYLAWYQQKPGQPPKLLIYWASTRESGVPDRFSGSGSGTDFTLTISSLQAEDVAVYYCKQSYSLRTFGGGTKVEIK

B1: ADI-34145 IgG (antibody, V domains shown)
VH: EVQLLESGGGLVQPGGSLRLSCAASGFTFSSYAMSWVRQAPGKGLEWVSTISGSGGSTYYADSVKGRFTISRDNSKNTLYLQMNSLRAEDTAVYYCARLGGRRGSGSSYYYYYGMDVWGQGTTVTVSS
VL: not shown
notes: anti-ID IgG
Turning to B1, the dissociation constant (Kd) is 27.8 nM with ADI-26954 anti-CD3 bsIgG, 9.13 nM with ADI-22523 anti-CD3 bsIgG [2], 57.1 nM with ADI-26916 anti-CD3 bsIgG and 13.4 nM with ADI-26906 anti-CD3 bsIgG [3]. Also, the binding result with CTL-19613 anti-CD3 bsIgG [1] and in the assay with CTL-19672 anti-CD3 bsIgG was “no binding” throughout.

B2: ADI-34134 IgG (antibody, V domains shown)
VH: QVQLVQSGAEVKKPGSSVKVSCKASGGTFSSYAISWVRQAPGQGLEWMGGIIPIFGTANYAQKFQGRVTITADESTSTAYMELSSLRSEDTAVYYCARGAPNYYGSGGYDDGWFDPWGQGTLVTVSS
VL: EIVLTQSPGTLSLSPGERATLSCRASQSVSSDYLAWYQQKPGQAPRLLIYGASSRATGIPDRFSGSGSGTDFTLTISRLEPEDFAVYYCQQFGRVPTFGGGTKVEIK
B2: the dissociation constant (Kd) was determined as 1.02 nM with ADI-26927 anti-CD3 bsIgG, 1.39 nM in the assay with ADI-26928 anti-CD3 bsIgG, 0.47 nM in the assay with ADI-22523 anti-CD3 bsIgG [5] and 0.75 nM in the assay with ADI-26906 anti-CD3 bsIgG [6]. Besides, in the assay with CTL-19613 anti-CD3 bsIgG [4], the binding result was “no binding”.
